Test results taken from IntAct's records for PubMed 18786923.

B1: Complement factor H (Homo sapiens), P08603 (parent)
chain: MRLLAKIICLMLWAICVAEDCNELPPRRNTEILTGSWSDQTYPEGTQAIYKCRPGYRSLGNVIMVCRKGEWVALNPLRKCQKRPCGHPGDTPFGTFTLTGGNVFEYGVKAVYTCNEGYQLLGEINYRECDTDGWTNDIPICEVVKCLPVTAPENGKIVSSAMEPDREYHFGQAVRFVCNSGYKIEGDEEMHCSDDGFWSKEKPKCVEISCKSPDVINGSPISQKIIYKENERFQYKCNMGYEYSERGDAVCTESGWRPLPSCEEKSCDNPYIPNGDYSPLRIKHRTGDEITYQCRNGFYPATRGNTAKCTSTGWIPAPRCTLKPCDYPDIKHGGLYHENMRRPYFPVAVGKYYSYYCDEHFETPSGSYWDHIHCTQDGWSPAVPCLRKCYFPYLENGYNQNYGRKFVQGKSIDVACHPGYALPKAQTTVTCMENGWSPTPRCIRVKTCSKSSIDIENGFISESQYTYALKEKAKYQCKLGYVTADGETSGSITCGKDGWSAQPTCIKSCDIPVFMNARTKNDFTWFKLNDTLDYECHDGYESNTGSTTGSIVCGYNGWSDLPICYERECELPKIDVHLVPDRKKDQYKVGEVLKFSCKPGFTIVGPNSVQCYHFGLSPDLPICKEQVQSCGPPPELLNGNVKEKTKEEYGHSEVVEYYCNPRFLMKGPNKIQCVDGEWTTLPVCIVEESTCGDIPELEHGWAQLSSPPYYYGDSVEFNCSESFTMIGHRSITCIHGVWTQLPQCVAIDKLKKCKSSNLIILEEHLKNKKEFDHNSNIRYRCRGKEGWIHTVCINGRWDPEVNCSMAQIQLCPPPPQIPNSHNMTTTLNYRDGEKVSVLCQENYLIQEGEEITCKDGRWQSIPLCVEKIPCSQPPQIEHGTINSSRSSQESYAHGTKLSYTCEGGFRISEENETTCYMGKWSSPPQCEGLPCKSPPEISHGVVAHMSDSYQYGEEVTYKCFEGFGIDGPAIAKCLGEKWSHPPSCIKTDCLSLPSFENAIPMGEKKDVYKAGEQVTYTCATYYKMDGASNVTCINSRWTGRPTCRDTSCVNPPTVQNAYIVSRQMSKYPSGERVRYQCRSPYEMFGDEEVMCLNGNWTEPPQCKDSTGKCGPPPPIDNGDITSFPLSVYAPASSVEYQCQNLYQLEGNKRITCRNGQWSEPPKCLHPCVISREIMENYNIALRWTAKQKLYSRTGESVEFVCKRGYRLSSRSHTLRTTCWDGKLEYPTCAKR
partner: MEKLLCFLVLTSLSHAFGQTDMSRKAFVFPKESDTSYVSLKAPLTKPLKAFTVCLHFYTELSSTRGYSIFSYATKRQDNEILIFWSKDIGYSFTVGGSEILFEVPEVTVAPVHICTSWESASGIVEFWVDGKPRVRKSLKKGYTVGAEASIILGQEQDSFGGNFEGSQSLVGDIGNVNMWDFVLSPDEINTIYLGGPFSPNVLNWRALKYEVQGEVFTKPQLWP

Variants of: B1
Details: with crp_human CRP
For Y402H, the “effect of a mutation on the interaction” value was “with no effect”.

Variants of: B1
Details: with crp_human CRP
Remark: another data set of the same source
With Y402H the “effect of a mutation on the interaction” value was “decreasing interaction strength”.
